Laboratory results published in the supplement of paper PMC10126150.
± gives the standard deviation of the averaged measurements.

The sequences below were run on ATP (assay: switch fluorescence ratio, 500 uM ATP over buffer (Cy3 cluster intensity, sum of 5 cycles each) (fold (ratio)); higher = stronger signal-on switching upon ATP binding; sequences stand for … in TCGTCGGCAGCGTCAGATGTGTATAAGAGACAGTTTTTTTTTTTTTTTTTTTTTTTTT…TC). Conditions: aptamer strand: ATP DNA aptamer (quencher-CACCTGGGGGAGTATTGCGGAGGAAGG + anchor), 100 nM annealed; ATP concentration: 500 uM.
Summary of the method: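 Exposure to 500 uM ATP lasted 15 min at 22 °C before imaging, and a selection-buffer image was taken beforehand, for Cy3-labelled switching-strand clusters on a modified Illumina MiSeq flow-cell annealed to 100 nM quencher-labelled ATP aptamer. Five buffer/ATP cycles were run with NaOH stripping and re-annealing between them. The fluorescence ratio per cluster is summed target-cycle over summed buffer-cycle Cy3 intensity, averaged per switch-domain sequence. Clusters outside 100-1000 RFU were excluded.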
In the case of GTAATGATTG, the switch fluorescence ratio is reported as 0.989 ± 0.014.
AAACGCGGAC showed a switch fluorescence ratio of 3.45 ± 0.49.
GTGGGGGAAT was tested, and the switch fluorescence ratio was 1 ± 0.011.
AAAGTTTTGG was tested, and the switch fluorescence ratio was 0.985 ± 0.026.
In the case of TTAAGTGGTG, the switch fluorescence ratio is reported as 1.01 ± 0.017.
In the case of ATAGTACGCC, the switch fluorescence ratio is reported as 1.28 ± 0.33.
GGTTCATGGT showed a switch fluorescence ratio of 0.989 ± 0.011.
For TTCCTAATTT, the switch fluorescence ratio was 1.63 ± 0.94.
In the case of TTTGATTCAG, the switch fluorescence ratio is reported as 1.04 ± 0.071.
Work on TGGATATGAC yielded a switch fluorescence ratio of 1 ± 0.015.
In the case of TAGTTCGCTT, the switch fluorescence ratio is reported as 1.003 ± 0.0067.
AGGTTGTAAT gave a switch fluorescence ratio of 1 ± 0.016.
For GAGCCAGATT, the switch fluorescence ratio was 1.0095 ± 0.00059.
For GAAGCCCAGG, the switch fluorescence ratio was 3.38 ± 2.6.
In the case of ATATGTTATG, the switch fluorescence ratio is reported as 0.982 ± 0.015.
Sequence GTTAAAAGTG has a switch fluorescence ratio of 0.987 ± 0.03.
With GAATTCGGAA the switch fluorescence ratio was 1.0486 ± 0.00049.
With GGTGTTAGAG the switch fluorescence ratio was 0.985 ± 0.0036.
With CTGGTAATAT the switch fluorescence ratio was 1.15 ± 0.041.
For CATAGGAGGC, the switch fluorescence ratio was 1 ± 0.031.
CATGGGTGGG was tested, and the switch fluorescence ratio was 0.994 ± 0.028.
TTGACATGC gave a switch fluorescence ratio of 1.01 ± 0.044.
In the case of TTAATACTGT, the switch fluorescence ratio is reported as 1.03 ± 0.016.
GATGGGGTTC gave a switch fluorescence ratio of 1.01 ± 0.018.
For GATTGTTGGG, the switch fluorescence ratio was 0.984 ± 0.02.
Work on AGTAACCGGG yielded a switch fluorescence ratio of 1.02 ± 0.035.
ATGTCCCGTT was tested, and the switch fluorescence ratio was 0.98 ± 0.014.
With GGACTGAGGA the switch fluorescence ratio was 1.002 ± 0.01.
For AATGTAGACT, the switch fluorescence ratio was 1.017 ± 0.0084.
Sequence GATCGCAGCG has a switch fluorescence ratio of 0.986 ± 0.032.
Sequence GCCGCTGGGA has a switch fluorescence ratio of 1.01 ± 0.022.
Sequence AGGGGGAAAT has a switch fluorescence ratio of 0.987 ± 0.035.
TTGACTGGTG showed a switch fluorescence ratio of 1.02 ± 0.013.
Work on TAGCTGTTGT yielded a switch fluorescence ratio of 0.993 ± 0.027.
TTCGTGTTGG showed a switch fluorescence ratio of 0.973 ± 0.025.
GGGGCATAGG was tested, and the switch fluorescence ratio was 0.9777 ± 0.0015.
GATAGTGATA gave a switch fluorescence ratio of 1.01 ± 0.019.
TGGGTATTAG showed a switch fluorescence ratio of 0.992 ± 0.054.
Work on AGATATGTTT yielded a switch fluorescence ratio of 0.986 ± 0.025.
AAGGCTGGGT showed a switch fluorescence ratio of 1.02 ± 0.023.
With GATAAAAGCG the switch fluorescence ratio was 0.994 ± 0.0015.
For TACATTAATA, the switch fluorescence ratio was 1.054 ± 0.0049.
AAGATTTTTT gave a switch fluorescence ratio of 1.01 ± 0.016.
Work on AGGGGAAATG yielded a switch fluorescence ratio of 0.9645 ± 0.0024.
TGTTGTTGGT gave a switch fluorescence ratio of 1.017 ± 0.00011.
Sequence GATCATGCCT has a switch fluorescence ratio of 1.048 ± 0.008.
AAAAAACTTT gave a switch fluorescence ratio of 1.05 ± 0.027.
GCGGAACGTG showed a switch fluorescence ratio of 0.997 ± 0.04.
Sequence TAAAACAGGA has a switch fluorescence ratio of 0.97 ± 0.017.
GGTATTAGTG showed a switch fluorescence ratio of 1.01 ± 0.021.
In the case of GCGGTTAGGC, the switch fluorescence ratio is reported as 0.968 ± 0.034.
For TTAACTTTCA, the switch fluorescence ratio was 1.04 ± 0.029.
Sequence ATATTAGATT has a switch fluorescence ratio of 1.019 ± 0.0076.
With GAGTTTTTTG the switch fluorescence ratio was 1.03 ± 0.039.
GAGGCTGGGA showed a switch fluorescence ratio of 0.988 ± 0.032.
Sequence AGGCTAGGGG has a switch fluorescence ratio of 1.01 ± 0.042.
GACCCGGGTT was tested, and the switch fluorescence ratio was 1.11 ± 0.15.
Sequence AGTTGTAGTT has a switch fluorescence ratio of 0.972 ± 0.041.
Work on TAAGAGCCAT yielded a switch fluorescence ratio of 1.04 ± 0.013.
Work on GGGGGGGGA yielded a switch fluorescence ratio of 1.05 ± 0.026.
CGGCGGGGAA gave a switch fluorescence ratio of 0.9757 ± 0.00091.
AGTTGGTCCT gave a switch fluorescence ratio of 1.01 ± 0.017.
In the case of CGAGACAGGT, the switch fluorescence ratio is reported as 1.04 ± 0.0098.
TTACGGGTAT was tested, and the switch fluorescence ratio was 1.01 ± 0.039.
With CGGGTTTGGT the switch fluorescence ratio was 1.01 ± 0.011.
ACCGGTGTTC gave a switch fluorescence ratio of 1.021 ± 0.0069.
TGCGAGGTCA gave a switch fluorescence ratio of 1.03 ± 0.022.
With TGGGGAGGGT the switch fluorescence ratio was 1.01 ± 0.035.
TTTCGGGTAC gave a switch fluorescence ratio of 1.2 ± 0.22.
TTAAGGAATT showed a switch fluorescence ratio of 0.999 ± 0.036.
With TCTGATGAAT the switch fluorescence ratio was 1.02 ± 0.034.
GGAACGGGGA showed a switch fluorescence ratio of 1.01 ± 0.017.
TTTGGATGGG gave a switch fluorescence ratio of 0.994 ± 0.012.
With TTGGAAAGGT the switch fluorescence ratio was 1.1 ± 0.16.
CTCTGTTACA showed a switch fluorescence ratio of 1.04 ± 0.038.
In the case of AGGTTTAGTA, the switch fluorescence ratio is reported as 1.02 ± 0.015.
ATTCTTTTGC gave a switch fluorescence ratio of 1.03 ± 0.06.
Work on CTGAGATCTC yielded a switch fluorescence ratio of 1.02 ± 0.011.
In the case of CTTTTGAGGG, the switch fluorescence ratio is reported as 0.974 ± 0.018.
Sequence ACGGGGGGAA has a switch fluorescence ratio of 1.02 ± 0.019.
Work on TTTGGGATGC yielded a switch fluorescence ratio of 1.07 ± 0.095.
Sequence TGAGAGCTGA has a switch fluorescence ratio of 0.9825 ± 0.0063.
AAGATATCGA gave a switch fluorescence ratio of 1.02 ± 0.014.
GAGTTTGAGT showed a switch fluorescence ratio of 0.982 ± 0.035.
In the case of TCAGTGAAAC, the switch fluorescence ratio is reported as 0.988 ± 0.021.
TCAATGTGCG gave a switch fluorescence ratio of 1.013 ± 0.01.
TTCGAAAGTT showed a switch fluorescence ratio of 0.987 ± 0.026.
Work on TCGTTTGGGT yielded a switch fluorescence ratio of 0.978 ± 0.035.
In the case of AGATAAAATT, the switch fluorescence ratio is reported as 0.98 ± 0.056.
CGGAGTAGGG showed a switch fluorescence ratio of 1.058 ± 0.0023.
GTGTAAGACC was tested, and the switch fluorescence ratio was 1.03 ± 0.027.
For GATGTTGTGT, the switch fluorescence ratio was 0.9802 ± 0.0091.
Work on GATGGATGAA yielded a switch fluorescence ratio of 1.016 ± 0.0033.
ACCACCTTAC showed a switch fluorescence ratio of 2.32 ± 0.29.
With ATTACTTTTT the switch fluorescence ratio was 1 ± 0.027.
For TCCATTTTAA, the switch fluorescence ratio was 1.055 ± 0.0017.
AAGCCGGGTC was tested, and the switch fluorescence ratio was 0.991 ± 0.0014.
In the case of CTGAGAGAAT, the switch fluorescence ratio is reported as 1.27 ± 0.46.
TCTTGGATGG gave a switch fluorescence ratio of 0.986 ± 0.04.
With GGTTAACTAG the switch fluorescence ratio was 1.02 ± 0.011.
In the case of TGAGACTGGG, the switch fluorescence ratio is reported as 0.993 ± 0.02.
For ACATCTCGTT, the switch fluorescence ratio was 0.96 ± 0.041.
With GGGGTTGAAA the switch fluorescence ratio was 0.973 ± 0.083.
Work on GATGATGAGG yielded a switch fluorescence ratio of 0.9961 ± 0.0073.
Sequence GAATAGGTAA has a switch fluorescence ratio of 1.023 ± 0.0038.
Sequence TTGGCGTCCG has a switch fluorescence ratio of 0.988 ± 0.047.
In the case of TGATTTTTTT, the switch fluorescence ratio is reported as 1.01 ± 0.031.
Work on GAACGGCTG yielded a switch fluorescence ratio of 1.07 ± 0.049.
TTAACAGGGG gave a switch fluorescence ratio of 1.33 ± 0.26.
In the case of AATGTGTTTG, the switch fluorescence ratio is reported as 0.992 ± 0.042.
CAGACTCGGT gave a switch fluorescence ratio of 1.02 ± 0.024.
With TTTTATTCCT the switch fluorescence ratio was 1.04 ± 0.037.
With ATGGCTAATA the switch fluorescence ratio was 0.9806 ± 0.0057.
GAGGGTCAAA showed a switch fluorescence ratio of 1.004 ± 0.01.
In the case of CATAGGGGAA, the switch fluorescence ratio is reported as 1.01 ± 0.011.
For TTTGTCTTGG, the switch fluorescence ratio was 0.972 ± 0.031.
Sequence CGGATCGGGG has a switch fluorescence ratio of 1.17 ± 0.15.
Work on GGTGCTGTCC yielded a switch fluorescence ratio of 1.033 ± 0.0011.
ATACCATTTC showed a switch fluorescence ratio of 1.03 ± 0.049.
Work on GGGCTAGTGG yielded a switch fluorescence ratio of 1.02 ± 0.036.
TAGAGGCTAA was tested, and the switch fluorescence ratio was 0.977 ± 0.013.
CATTTCGAAC showed a switch fluorescence ratio of 1.02 ± 0.027.
Sequence GCAGTTTGGA has a switch fluorescence ratio of 0.989 ± 0.015.
CGTTGGGACG showed a switch fluorescence ratio of 1.0042 ± 0.00087.
With CCCCGGCTGG the switch fluorescence ratio was 1.125 ± 0.005.
Work on TTTTATGC yielded a switch fluorescence ratio of 1.01 ± 0.061.
CTGTGGGGGT showed a switch fluorescence ratio of 1.04 ± 0.012.
Work on TTTAGTGCAT yielded a switch fluorescence ratio of 1.03 ± 0.034.
For ACGCCGTCGA, the switch fluorescence ratio was 1.035 ± 0.0099.
With GGGTGTGGGT the switch fluorescence ratio was 0.965 ± 0.026.
ATCAACGGCA showed a switch fluorescence ratio of 1.07 ± 0.023.
For ATATTTGAGT, the switch fluorescence ratio was 0.9878 ± 0.0045.
Sequence CGGGGCGGCA has a switch fluorescence ratio of 0.998 ± 0.032.
In the case of CGCTACTGTT, the switch fluorescence ratio is reported as 1.079 ± 0.0014.
GATTTTTGTG showed a switch fluorescence ratio of 0.992 ± 0.018.
For CCAGCCAATA, the switch fluorescence ratio was 3.36 ± 0.12.
GTGGCGCGGA showed a switch fluorescence ratio of 0.959 ± 0.013.
CGTACAAAAG was tested, and the switch fluorescence ratio was 0.998 ± 0.03.
In the case of AAAGGTATGG, the switch fluorescence ratio is reported as 0.961 ± 0.018.
Sequence GGTTATGGCT has a switch fluorescence ratio of 0.9973 ± 0.0025.
For TTTGCCCAGA, the switch fluorescence ratio was 1.02 ± 0.041.
For CGGGCGAATT, the switch fluorescence ratio was 0.982 ± 0.014.
CCCGTGCCTA showed a switch fluorescence ratio of 1.03 ± 0.064.
TGATTAATTT showed a switch fluorescence ratio of 0.984 ± 0.011.
With CGACATACGA the switch fluorescence ratio was 1.56 ± 0.033.
Sequence GTGTGTCTGT has a switch fluorescence ratio of 0.991 ± 0.021.
Sequence AGAGAGGGGC has a switch fluorescence ratio of 0.971 ± 0.014.
For GGGGTATTGA, the switch fluorescence ratio was 1.03 ± 0.037.
For TTAATAGTGT, the switch fluorescence ratio was 1 ± 0.013.
Sequence GCAGTATTTT has a switch fluorescence ratio of 1.0075 ± 0.00081.
With TCAAAAGGGG the switch fluorescence ratio was 1.06 ± 0.092.
In the case of ACTTTGCCAC, the switch fluorescence ratio is reported as 1.18 ± 0.016.
Work on TGCGGGTAAT yielded a switch fluorescence ratio of 0.9985 ± 0.0046.
TCTTGCCCTG gave a switch fluorescence ratio of 0.977 ± 0.058.
Work on TCTTTTTTCC yielded a switch fluorescence ratio of 1.1 ± 0.1.
TGACCGCTTT was tested, and the switch fluorescence ratio was 1.12 ± 0.029.
GGGTTTGTAT gave a switch fluorescence ratio of 0.979 ± 0.046.
